These results are taken from PMC6486907.

Experiment [1] deals with Sau-TBD (large fragment of Staphylococcus aureus Pol I with the thioredoxin-binding domain of bacteriophage T7 DNA polymerase inserted) (Staphylococcus aureus | bacteriophage T7).
Experiment [2] has the same target. The source holds these as a separate data set.

Take “thioredoxin from E. coli (TrxA) (from UniProt P0AA25 2-109) (natural protein)”: in experiment [1], the DNA polymerase activity of Sau-TBD on primed M13mp18 DNA with 1.5 uM thioredoxin (1316 units/mg protein without thioredoxin) (units/mg protein) amounted to 2860. In experiment [2], this substance displayed an average primer extension length of Sau-TBD with thioredoxin, as told in the text (differs from Table 3) of 74.2 nt and a microscopic processivity (PI) of Sau-TBD with thioredoxin, as told in the text (differs from Table 3) of 0.986.
